Columns and labels:
[1] = biological target: T1, hSSB2 (C-terminally His-tagged) (Homo sapiens, UniProt Q96AH0 1-204); assay: fluorescence anisotropy; no MgCl2; Hill n 2.7; Anisotropy: standard LLPS buffer without MgCl2 (50 mM KCl standard), 25 C, 10 nM probe; EMSA: standard LLPS buffer (50 mM KCl, 10 mM MgCl2), 50 nM probe, 1% agarose; buffer species and pH not in the material; conditions: protein: recombinant; tags: C-terminal His; label: 3'-fluorescein; single strand
[2] = biological target: T1, hSSB2 (C-terminally His-tagged); assay: fluorescence anisotropy; no MgCl2; Hill n 3.3; Anisotropy: standard LLPS buffer without MgCl2 (50 mM KCl standard), 25 C, 10 nM probe; EMSA: standard LLPS buffer (50 mM KCl, 10 mM MgCl2), 50 nM probe, 1% agarose; buffer species and pH not in the material; conditions: protein: recombinant; tags: C-terminal His; label: 3'-fluorescein; single strand
[3] = biological target: T1, hSSB2 (C-terminally His-tagged); assay: fluorescence anisotropy; no MgCl2; Hill n 1.1; Anisotropy: standard LLPS buffer without MgCl2 (50 mM KCl standard), 25 C, 10 nM probe; EMSA: standard LLPS buffer (50 mM KCl, 10 mM MgCl2), 50 nM probe, 1% agarose; buffer species and pH not in the material; conditions: protein: recombinant; tags: C-terminal His; label: 3'-fluorescein; single strand
hSSB2-dIDR = hSSB2-dIDR (Homo sapiens, UniProt Q96AH0 1-100); assay: fluorescence anisotropy; no MgCl2; Hill n 2.4; Anisotropy: standard LLPS buffer without MgCl2 (50 mM KCl standard), 25 C, 10 nM probe; EMSA: standard LLPS buffer (50 mM KCl, 10 mM MgCl2), 50 nM probe, 1% agarose; buffer species and pH not in the material; conditions: protein: recombinant; tags: His (terminus not clearly stated); label: 3'-fluorescein; single strand
Sequence of hSSB2-dIDR (Q96AH0 1-100): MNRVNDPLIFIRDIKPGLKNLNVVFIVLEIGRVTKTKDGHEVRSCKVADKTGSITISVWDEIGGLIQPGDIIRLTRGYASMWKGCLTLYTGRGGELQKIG

T1 sequence (Q96AH0 whole entry): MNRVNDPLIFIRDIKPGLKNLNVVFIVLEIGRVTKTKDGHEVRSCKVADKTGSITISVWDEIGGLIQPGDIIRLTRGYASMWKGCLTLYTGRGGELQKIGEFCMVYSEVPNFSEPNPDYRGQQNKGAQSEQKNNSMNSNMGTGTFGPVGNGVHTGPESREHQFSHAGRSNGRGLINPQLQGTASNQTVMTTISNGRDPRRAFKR

## ATTTTTGCGGATGGCTTAGAGCTTAATTGCGCAACG (ssDNA) [ss36 DNA]
[1]
  Kd: 530 ± 20 nM

## AUUUUUGCGGAUGGCUUAGAGCUUAAUUGCGCAACG (ssRNA) [ss36 RNA]
[2]
  Kd: 870 ± 170 nM

B1: ss54 DNA (ssDNA)
DNA: TCCTTTTGATAAGAGGTCATTTTTGCGGATGGCTTAGAGCTTAATTGCGCAACG
[3]
  Kd: 87 ± 7 nM
hSSB2-dIDR
  Kd: 850 ± 20 nM

From paper PMC10955726, “DNA‐dependent phase separation by human SSB2 (NABP1/OBFC2A) protein points to adaptations to eukaryotic genome repair processes”
